# Data taken from patent publication US6512097.
# Positions count from the first letter of the chain named. Names may count otherwise. Read-outs that look alike come from different tables or passages of the source.
# B1: C6VLF (scFv)
# scFv: QVQLLQSGAELKKPGESLKISCKGSGYSFTSYWIAWVRQMPGKGLEYMGLIYPGDSDTKYSPSFQGQVTISVDKSVSTAYLQWSSLKPSDSAVYFCARHDVGYCSSSNCAKWPEYFQHWGQGTLVTVSSGGGGSGGGGSGGGGSQSVLTQPPSMSAAPGQKVTISCSGSSSNIGNNYVSWYQQFPGTAPKLLIHDNNKRPSGIPDRISGSKSGTSASLAISGLQSDDEADYYCAAWDDSLNGWVFGGGTKLTVLG
# modifications: Radioiodinated for the Scatchard assay; the label is not carried in the letters.
# notes: Light chain shuffled; mixture of monomer and dimer by gel filtration
# B2: C6VLE (scFv)
# scFv: QVQLLQSGAELKKPGESLKISCKGSGYSFTSYWIAWVRQMPGKGLEYMGLIYPGDSDTKYSPSFQGQVTISVDKSVSTAYLQWSSLKPSDSAVYFCARHDVGYCSSSNCAKWPEYFQHWGQGTLVTVSSGGGGSGGGGSGGGGSQSVLTQPPSVSAAAGQKVTISCSGSSSSIGRNYVSWNQQLPGTAPKLLIWRNNQRPSGVPDRFSGSKSGTSASLAISGVRSEDEADYYCASWDNSLSGWVFGGGTKLTVLG
# modifications: Radioiodinated for the Scatchard assay; the label is not carried in the letters.
# notes: as for B1
# B3: C6L1 sFv (scFv)
# scFv: QVQLLQSGAELKKPGESLKISCKGSGYSFTSYWIAWVRQMPGKGLEYMGLIYPGDSDTKYSPSFQGQVTISVDKSVSTAYLQWSSLKPSDSAVYFCARHDVGYCSSSNCAKWPEYFQHWGQGTLVTVSSGGGGSGGGGSGGGGSQSVLTQPPSVSGAPGQWVTISCSGSSSNIGNNYVSWYQQLPGTAPKLLIYDNNKRPSGVPDRFSGSQSGTSASLAISGLRSEDEADYYCAAWDDSLSGWVFGGGTKLTVLG
# notes: Light chain shuffled: C6.5 VH with new VL; also called C6L1 (light chain shuffle)
# B4: C6ML3-A2 (scFv)
# scFv: QVQLLQSGAELKKPGESLKISCKGSGYSFTSYWIAWVRQMPGKGLEYMGLIYPGDSDTKYSPSFQGQVTISVDKSVSTAYLQWSSLKPSDSAVYFCARHDVGFCSSSNCAKWPEYFQHWGQGTLVTVSSGGGGSGGGGSGGGGSQSVLTQPPSVSAAPGQKVTISCSGSSSNIGNNYVSWYQQLPGTAPKLLIYGHTNRPAGVPDRFSGSKSGTSASLAISGFRSEDEADYYCASWDYTLSGWVFGGGTKLTVLG
# notes: C6ML3-9 sFv, VH CDR3 library A clone; unpurified in the koff screen; also called mutant sFv with the conservative replacement of Y99F
# B5: C6MH3-D7 (scFv)
# scFv: B4 scFv with F103Y, Y115W, F116Q, Q117D, H118P
# notes: C6ML3-9 sFv, VH CDR3 library D mutant; expression too low for a purified Kd
# B6: C6H2 (scFv)
# scFv: QVQLVQSGAEVKKPRESLKISCKGSGYSFTSYWIAWVRQMPGKGLEYMGLIYPADSKTIYSPSFQGQVTISVDKSVSTAYLQWSSLKTSDTAMYYCARHDVGYCSSSNCAKWPEYFQHWGQGTLVTVSSGGGGSGGGGSGGGGSQSVLTQPPSVSAAPGQKVTISCSGSSSNIGNNYVSWYQQLPGTAPKLLIYGHTNRPAGVPDRFSGSKSGTSASLAISGFRSEDEADYYCAAWDDSLSGWVFGGGTKLTVLG
# notes: Heavy chain shuffled
# B7: C6VLB (scFv)
# scFv: QVQLLQSGAELKKPGESLKISCKGSGYSFTSYWIAWVRQMPGKGLEYMGLIYPGDSDTKYSPSFQGQVTISVDKSVSTAYLQWSSLKPSDSAVYFCARHDVGYCSSSNCAKWPEYFQHWGQGTLVTVSSGGGGSGGGGSGGGGSQSVLTQPPSVSAAPGQKVTISCSGSSSNIGNNYVSWYQQLPGTAPKLLIYSDNQRPSGVPDRFSGSKSGTSASLAISGLRSEDEADYYCAAWDDSLSGHWVFGGGTKLTVLG
# notes: as for B1
# B8: 741F8 sFv (scFv, V domains shown)
# VH: EIQLVQSGPELKKPGETVKISCKASGYTFTNYGMNWVKQAPGKGLKWMGWINTNTGEPTYAEEFKGRFAFSLETSASTAYLQINNLKNEDTATYFCGRQFITYGGFANWGQGTLVTVSA
# VL: DIVMTQSPKFMSTSVGDRVSISCKASQDVSTAVAWYQQKPGQSPKLLIYWTSTRHTGVPDRFTGSGSGTDYTLTISSVQAEDLALHYCQQHYRVPYTFGGGTKLEIK
# B9: C6VLD (scFv)
# scFv: QVQLLQSGAELKKPGESLKISCKGSGYSFTSYWIAWVRQMPGKGLEYMGLIYPGDSDTKYSPSFQGQVTISVDKSVSTAYLQWSSLKPSDSAVYFCARHDVGYCSSSNCAKWPEYFQHWGQGTLVTVSSGGGGSGGGGSGGGGSQSVLTQPPSVSAAPGQKVTISCSGTNSNIGNNYVSWYQQLPGTAPKLLIYTNDQRPSGVPDRFSGSKSGTSASLAISGLQSEDEADYYCAAWDDSLNGWMFGGGTKLTVLG
# modifications: Radioiodinated for the Scatchard assay; the label is not carried in the letters.
# notes: as for B1
# Columns and labels:
# [1] = molecular target: T1, c-erbB-2 expressed on cells (SK-OV-3, SK-BR-3) (UniProt P04626 23-1255, limits assumed); assay: Scatchard after radioiodination, SK-OV cells
# T1 construct: whole, on cells; also called native c-erbB-2 expressed on cells; c-erbB-2 on SK-OV-3 cells
# Description: (§1) All assays were performed in triplicate. Briefly, […] of radioiodinated sFv was added to 5×10^6 SK-OV cells in the presence of increasing concentrations of unlabeled sFv from the same preparation. After a 30 minute incubation at 20° C., the samples were washed with PBS at 4° C. and centrifuged at 500 g. The amount of labeled sFv bound to the cells was determined by counting the pellets in a gamma counter and the K_a, and K_d were calculated using the EBDA program (V 2.0, G. A. McPherson, 1983). The K_d of all the other isolated sFv were determined using surface plasmon resonance in a BIAcore (Pharmacia). In a BIAcore flow cell, approximately 1400 resonance units (RU) of c-erbB-2 ECD (25 μg/ml in 10 mM sodium acetate, pH 4.5) was coupled to a CM5 sensor chip (Johnsson et al. (1991), supra). Association and dissociation-rates were measured under continuous flow of […] using a concentration range from 50 to 800 nM. Rate constant $kon$ was determined from a plot of (1(dR/dt))/t vs concentration (Karlsson et al. (1991), supra). Rate constant $Hoff$ was determined from the dissociation part of the sensorgram at the highest concentration of sFv analyzed.
# (§2) These clones were purified by IMAC after subcloning into PUC119SFI/NotmycHis, and the affinity determined by Scatchard analysis.
# [2] = molecular target: T2, c-erbB-2 ECD with a Ser-Gly-His6 C-terminal fusion (UniProt P04626 23-652); assay: competition ELISA, sFv preincubated with soluble c-erbB-2 (0 to 100 nM)
# T2 construct: extracellular domain; Expressed from CHO cells, IMAC purified; coupled to a CM5 chip, coated on plates, or biotinylated with NHS-LC-biotin; also called c-erbB-2 extracellular domain; biotinylated c-erbB-2 ECD
# Description: Meth. 77: 305–319). Immunolon 4 ELISA plates (Dynatech) were coated with avidin in PBS (10 μg/ml) at 4° C. overnight. Biotinylated c-erbB-2 ECD (5 μg/ml) was added to the wells and incubated for 30 min at room temperature. Bacterial supernatant containing sFv was incubated with varying concentrations of c-erbB-2 (0 to 100 nM) at 4° C. for 1 h. The amount of free sFv was then determined by transferring 100 μl of each mixture into the wells of the previously prepared ELISA plate and incubating for 1 h at 4° C. Binding of sFv was detected as under ELISA screening and the IC50 calculated as described (Friguet et al. (1985), supra)
# as §2
# [3] = molecular target: T2, c-erbB-2 ECD with a Ser-Gly-His6 …; assay: SPR BIAcore
# [4] = molecular target: T2, c-erbB-2 ECD with a Ser-Gly-His6 …; assay: SPR BIAcore; remark: listed apart in the source
# Description: as §1
# [5] = molecular target: T2, c-erbB-2 ECD with a Ser-Gly-His6 …; assay: SPR BIAcore; remark: listed apart in the source
# Description: as §1
# [6] = molecular target: T2, c-erbB-2 ECD with a Ser-Gly-His6 …; assay: SPR BIAcore, unpurified sFv
# [7] = molecular target: T2, c-erbB-2 ECD with a Ser-Gly-His6 …; assay: SPR BIAcore (Kd ND, expression too low)
# [8] = molecular target: T2, c-erbB-2 ECD with a Ser-Gly-His6 …; assay: SPR BIAcore; remark: listed apart in the source
# [9] = molecular target: T2, c-erbB-2 ECD with a Ser-Gly-His6 …; assay: SPR BIAcore; remark: listed apart in the source
# [10] = molecular target: T1, c-erbB-2 expressed on cells (SK-OV-3, …); assay: Scatchard on SK-OV-3 cells
# Description: (§3) All assays were performed in triplicate. […] The amount of labeled sFv bound to the cells was determined by counting the pellets in a gamma counter and the K_a, and K_d were calculated using the EBDA program (V 2.0, G. A. McPherson, 1983).
# [11] = molecular target: T1, c-erbB-2 expressed on cells (SK-OV-3, …); assay: Scatchard on SK-OV-3 cells; remark: listed apart in the source
# Description: as §3
binder,measurement,setting,value
B1,Kd,[1],79 nM
same,IC50,[2],7.5 nM
B2,Kd,[1],71 nM
same,IC50,[2],2.8 nM
B3,Kd,[3],2.5 nM
same,fold higher affinity than parental,[3],6 fold
same,Kd,[4],2.6 nM
same,koff,[4],0.002 s⁻¹
same,kon,[4],780000 M⁻¹ s⁻¹
same,Kd,[5],2.6 nM
B4,fold lower apparent koff than wt,[6],2.5 fold
B5,koff,[7],0.00031 s⁻¹
B6,fold higher affinity than C6.5,[3],5 fold
same,Kd,[5],3.1 nM
B7,Kd,[1],30 nM
same,IC50,[2],10 nM
B8,Kd,[8],26 nM
same,koff,[8],0.0064 s⁻¹
same,kon,[8],240000 M⁻¹ s⁻¹
same,Kd,[9],26 nM
same,koff,[9],0.0064 s⁻¹
same,kon,[9],240000 M⁻¹ s⁻¹
same,Kd,[10],54 nM
same,Kd,[11],54 nM
B9,Kd,[1],26 nM
same,IC50,[2],5.8 nM
